Test results as given in US20250115677A1, “Anti-CEA Antibody Drug Conjugates and Methods of Use” (BeiGene Switzerland GmbH, priority 2022, published 2025).

B1: BGA6710 variant K13E, Y57K (antibody, V domains shown)
VH: QVQLVQSGAEVKEPGASVKVSCKASGYIFTSYYLHWVRQAPGQGLEWIGYINPQTGKTSYAQKFQGRVTMTRDTSTSTVYMELSSLRSEDTAVYYCAREYGNYNYPLDYWGQGTLVTVSS
VL: DIQMTQSPSSLSASVGDRVTITCRASENQYGYLAWYQQKPGKVPKLLIYNYKNLVEGVPSRFSGSGSGTDFTLTISSLQPEDVATYYCQHHLGTPYTFGQGTKVEIK
notes: IgG format; both changes in the heavy chain
B2: BGA9962 (antibody, human IgG1, kappa, V domains shown)
VH: QVQLVQSGAEVKKPGASVKVSCKASGYIFTSYYLHWVRQAPGQGLEWIGYINPQTGKTSYAQKFQGRVTMTRDTSTSTVYMELSSLRSEDTAVYYCAREYGNYNYPLDYWGQGTLVTVSS
VL: DIQMTQSPSSLSASVGDRVTITCRASENQYGYLAWYQQKPGKVPKLLIYNYKNLVEGVPSRFSGSGSGTDFTLTISSLQPEDVATYYCQHHLGTPYTFGQGTKVEIKR
modifications: linker-payload conjugated after reduction of the antibody, DAR 8 (structure only as a drawing in Table 18)
B3: BGA0084 (antibody, human IgG1, kappa, V domains shown)
VH: QVQLVQSGAEVKKPGASVKVSCKASGYIFTSYYLHWVRQAPGQGLEWIGYINPQTGKTSYAQKFQGRVTMTRDTSTSTVYMELSSLRSEDTAVYYCAREYGNYNYPLDYWGQGTLVTVSS
VL: DIQMTQSPSSLSASVGDRVTITCRASENQYGYLAWYQQKPGKVPKLLIYNYKNLVEGVPSRFSGSGSGTDFTLTISSLQPEDVATYYCQHHLGTPYTFGQGTKVEIKR
modifications: linker-payload conjugated after reduction of the antibody, DAR 8 profile (structure only as a drawing in Table 18)
B4: BGA7413 (antibody, human IgG1, kappa, V domains shown)
VH: QVQLVQSGAEVKKPGASVKVSCKASGYIFTSYYLHWVRQAPGQGLEWIGYINPQTGKTSYAQKFQGRVTMTRDTSTSTVYMELSSLRSEDTAVYYCAREYGNYNYPLDYWGQGTLVTVSS
VL: DIQMTQSPSSLSASVGDRVTITCRASENQYGYLAWYQQKPGKVPKLLIYNYKNLVEGVPSRFSGSGSGTDFTLTISSLQPEDVATYYCQHHLGTPYTFGQGTKVEIKR
modifications: linker-payload conjugated after reduction of the antibody, DAR 8 profile (structure only as a drawing in Table 18)
B5: BGA8357 (antibody, human IgG1, kappa, V domains shown)
VH: QVQLVQSGAEVKKPGASVKVSCKASGYIFTSYYLHWVRQAPGQGLEWIGYINPQTGKTSYAQKFQGRVTMTRDTSTSTVYMELSSLRSEDTAVYYCAREYGNYNYPLDYWGQGTLVTVSS
VL: DIQMTQSPSSLSASVGDRVTITCRASENQYGYLAWYQQKPGKVPKLLIYNYKNLVEGVPSRFSGSGSGTDFTLTISSLQPEDVATYYCQHHLGTPYTFGQGTKVEIKR
modifications: linker-payload conjugated after reduction of the antibody, DAR 8 profile (structure only as a drawing in Table 18)
B6: BGA6710 variant L92E, Y57K (antibody, V domains shown)
VH: QVQLVQSGAEVKKPGASVKVSCKASGYIFTSYYLHWVRQAPGQGLEWIGYINPQTGKTSYAQKFQGRVTMTRDTSTSTVYMELSSLRSEDTAVYYCAREYGNYNYPLDYWGQGTLVTVSS
VL: DIQMTQSPSSLSASVGDRVTITCRASENQYGYLAWYQQKPGKVPKLLIYNYKNLVEGVPSRFSGSGSGTDFTLTISSLQPEDVATYYCQHHEGTPYTFGQGTKVEIK
notes: IgG format
B7: BGA1789 (antibody, human IgG1, V domains shown)
VH: QVQLVQSGAEVKKPGASVKVSCKASGYIFTSYWLHWVRQAPGQGLEWIGYINPQTGYTSYAQKFQGRVTMTRDTSTSTVYMELSSLRSEDTAVYYCAREYGNYNYPLDYWGQGTLVTVSS
VL: DIQMTQSPSSLSASVGDRVTITCRASENQYGYLAWYQQKPGKVPKLLIYNYKNLVEGVPSRFSGSGSGTDFTLTISSLQPEDVATYYCQHHLGTPYTFGQGTKVEIK
notes: Built on the BGA7592-1F-ph-M (BGA2433) template; human IgG1/kappa
B8: BGA6710 variant L92E (antibody, V domains shown)
VH: QVQLVQSGAEVKKPGASVKVSCKASGYIFTSYYLHWVRQAPGQGLEWIGYINPQTGYTSYAQKFQGRVTMTRDTSTSTVYMELSSLRSEDTAVYYCAREYGNYNYPLDYWGQGTLVTVSS
VL: DIQMTQSPSSLSASVGDRVTITCRASENQYGYLAWYQQKPGKVPKLLIYNYKNLVEGVPSRFSGSGSGTDFTLTISSLQPEDVATYYCQHHEGTPYTFGQGTKVEIK
notes: IgG format; L92E in the light chain
B9: BGA6710 variant Q54E, Y57K (antibody, V domains shown)
VH: QVQLVQSGAEVKKPGASVKVSCKASGYIFTSYYLHWVRQAPGQGLEWIGYINPETGKTSYAQKFQGRVTMTRDTSTSTVYMELSSLRSEDTAVYYCAREYGNYNYPLDYWGQGTLVTVSS
VL: DIQMTQSPSSLSASVGDRVTITCRASENQYGYLAWYQQKPGKVPKLLIYNYKNLVEGVPSRFSGSGSGTDFTLTISSLQPEDVATYYCQHHLGTPYTFGQGTKVEIK
notes: as for B1
B10: BGA6710 variant Q54E, Y57E (antibody, V domains shown)
VH: QVQLVQSGAEVKKPGASVKVSCKASGYIFTSYYLHWVRQAPGQGLEWIGYINPETGETSYAQKFQGRVTMTRDTSTSTVYMELSSLRSEDTAVYYCAREYGNYNYPLDYWGQGTLVTVSS
VL: DIQMTQSPSSLSASVGDRVTITCRASENQYGYLAWYQQKPGKVPKLLIYNYKNLVEGVPSRFSGSGSGTDFTLTISSLQPEDVATYYCQHHLGTPYTFGQGTKVEIK
notes: as for B1
B11: BGA6710 variant Y57D (antibody, V domains shown)
VH: QVQLVQSGAEVKKPGASVKVSCKASGYIFTSYYLHWVRQAPGQGLEWIGYINPQTGDTSYAQKFQGRVTMTRDTSTSTVYMELSSLRSEDTAVYYCAREYGNYNYPLDYWGQGTLVTVSS
VL: DIQMTQSPSSLSASVGDRVTITCRASENQYGYLAWYQQKPGKVPKLLIYNYKNLVEGVPSRFSGSGSGTDFTLTISSLQPEDVATYYCQHHLGTPYTFGQGTKVEIK
notes: IgG format; change in the heavy chain

Assays:
[1] = target: T1, recombinant soluble human CEA (extracellular domain, AA 1-687 of huCEA, C-terminal 6xHis) (human, UniProt P06731 35-687); experiment: SPR; kinetics on huCEA, IgG format
T1 construct: also called sCEA; soluble CEA
T1 sequence: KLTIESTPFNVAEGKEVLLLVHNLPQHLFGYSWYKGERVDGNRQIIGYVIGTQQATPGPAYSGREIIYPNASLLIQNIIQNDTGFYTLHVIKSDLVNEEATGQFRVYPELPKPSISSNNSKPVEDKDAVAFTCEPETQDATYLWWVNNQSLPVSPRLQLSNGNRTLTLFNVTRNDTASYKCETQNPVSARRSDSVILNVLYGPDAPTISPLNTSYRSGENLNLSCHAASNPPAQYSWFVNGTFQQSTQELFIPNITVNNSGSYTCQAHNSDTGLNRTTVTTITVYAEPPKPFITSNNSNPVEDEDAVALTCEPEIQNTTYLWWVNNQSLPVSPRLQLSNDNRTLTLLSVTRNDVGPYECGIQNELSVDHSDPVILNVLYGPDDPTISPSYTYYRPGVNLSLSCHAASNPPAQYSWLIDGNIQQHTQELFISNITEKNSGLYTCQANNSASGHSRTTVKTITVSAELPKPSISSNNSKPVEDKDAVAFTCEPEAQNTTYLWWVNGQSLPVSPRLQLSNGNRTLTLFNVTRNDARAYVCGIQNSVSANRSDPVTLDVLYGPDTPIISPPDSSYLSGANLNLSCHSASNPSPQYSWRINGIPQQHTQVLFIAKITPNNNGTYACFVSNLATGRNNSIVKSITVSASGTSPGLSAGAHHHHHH

[2] = target: T2, human CEA on cells (MKN45, LOVO, NCI-H2122, LS174T, CT26/CEA) (human, UniProt P06731 35-685); experiment: cell-based or functional assay
T2 sequence: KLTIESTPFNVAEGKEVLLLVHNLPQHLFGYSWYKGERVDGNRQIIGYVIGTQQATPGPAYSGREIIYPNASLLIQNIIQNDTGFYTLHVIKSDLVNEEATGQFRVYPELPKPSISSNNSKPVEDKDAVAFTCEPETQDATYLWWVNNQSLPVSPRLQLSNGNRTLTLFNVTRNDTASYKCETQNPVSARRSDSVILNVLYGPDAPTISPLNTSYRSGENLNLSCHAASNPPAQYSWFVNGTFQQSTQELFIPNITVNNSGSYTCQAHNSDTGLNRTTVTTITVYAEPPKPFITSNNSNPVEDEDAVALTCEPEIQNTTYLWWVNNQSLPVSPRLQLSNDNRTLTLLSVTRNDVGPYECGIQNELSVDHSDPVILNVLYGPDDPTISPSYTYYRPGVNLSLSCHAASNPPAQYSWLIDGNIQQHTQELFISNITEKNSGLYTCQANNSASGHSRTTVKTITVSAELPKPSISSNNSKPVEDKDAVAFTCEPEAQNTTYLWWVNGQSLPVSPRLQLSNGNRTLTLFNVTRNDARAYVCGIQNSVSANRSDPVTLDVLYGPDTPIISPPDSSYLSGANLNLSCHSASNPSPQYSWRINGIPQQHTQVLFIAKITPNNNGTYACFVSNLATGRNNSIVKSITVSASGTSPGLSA

[3] = target: T2, human CEA on cells (MKN45, LOVO, …); experiment: cell-based or functional assay; remark: listed apart in the source
[4] = target: T2, human CEA on cells (MKN45, LOVO, …); experiment: cell-based or functional assay; remark: listed apart in the source
[5] = target: T2, human CEA on cells (MKN45, LOVO, …); experiment: flow cytometry on MKN45 cells
[6] = target: T3, chimeric construct (CHIM) (human); experiment: SPR; binding to CHIM
T3 construct: CEACAM6 AA 1-273 joined to the membrane-peripheral region containing domain B3 of CEA (AA 596-687), C-terminal 6xHis; also called chimeric CEA
T3 chain: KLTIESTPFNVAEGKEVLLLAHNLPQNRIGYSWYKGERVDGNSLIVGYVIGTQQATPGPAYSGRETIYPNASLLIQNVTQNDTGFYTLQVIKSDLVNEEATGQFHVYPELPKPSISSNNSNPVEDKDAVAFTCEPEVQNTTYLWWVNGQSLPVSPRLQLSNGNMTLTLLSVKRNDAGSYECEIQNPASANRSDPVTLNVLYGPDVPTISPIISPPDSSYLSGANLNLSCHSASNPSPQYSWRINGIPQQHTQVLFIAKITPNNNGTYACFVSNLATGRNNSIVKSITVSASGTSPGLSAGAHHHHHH

| Binder | Kd [1] [nM] | EC50, cell killing of MKN45 cells [2] [nM] | Emax, cell killing of MKN45 cells [2] | Emax, cell killing of NCI-H2122 cells [3] | EC50, cell killing of LS174T cells [4] [nM] | Emax, cell killing of LS174T cells [4] | EC50 [5] [µg/mL] | Top [5] | koff [1] [s⁻¹] | kon [1] [M⁻¹ s⁻¹] | other results |
| --- | --- | --- | --- | --- | --- | --- | --- | --- | --- | --- | --- |
| B1 | 1.34 |  |  |  |  |  |  |  |  |  |  |
| B2 |  | 0.39 | 87.1 | 80 | 0.83 | 66.7 |  |  |  |  | EC50, cell killing of NCI-H2122 cells [3]: 0.17 nM |
| B3 |  | 0.38 | 88.8 | 83.8 | 0.85 | 69.9 |  |  |  |  | EC50, cell killing of NCI-H2122 cells [3]: 0.19 nM |
| B4 |  | 0.46 | 87.2 | 81.5 | 0.88 | 66.9 |  |  |  |  |  |
| B5 |  | 0.38 | 89.1 | 83.9 | 0.67 | 71.8 |  |  |  |  | EC50, cell killing of NCI-H2122 cells [3]: 0.14 nM |
| B6 | 5.29 |  |  |  |  |  | 1.09 | 970 | 0.000177 | 33400 |  |
| B7 |  |  |  |  |  |  |  |  |  |  | Kd [6]: 14.4 nM; koff [6]: 0.000463 s⁻¹; kon [6]: 32100 M⁻¹ s⁻¹ |
| B8 | 4.5 |  |  |  |  |  | 1.19 | 945 | 0.000188 | 41700 |  |
| B9 | 2.36 |  |  |  |  |  | 0.58 | 902 | 0.00026 | 110000 |  |
| B10 | 2.14 |  |  |  |  |  | 0.65 | 927 | 0.00025 | 117000 |  |
| B11 | 1.82 |  |  |  |  |  | 0.56 | 949 | 0.000195 | 107000 |  |
